Data on five molecules can be found in paper PMC3602430, “Identification of a Missing Link in the Evolution of an Enzyme into a Transcriptional Regulator” (PLoS ONE, 2013).

What is called Kd is the constant that tells how readily two partners part at equilibrium. A higher Kd goes with lower affinity. By stoichiometry N is commonly meant the number of molecules, sites or subunits per partner or assembly. One may read the Km as the substrate concentration at which the rate is half of its maximum.

For series [1], the target named is T1, BzdR (CBzdR, C-terminal effector-binding domain).
T1 construct: His6-CBzdR, residues 131–298
As to the kind of experiment: intrinsic protein fluorescence titration, one-site model. The arrangement: species or system Azoarcus sp. CIB.

The target of series [2] is NBzdR, N-terminal DNA-binding domain of BzdR (Azoarcus sp. CIB). As to the kind of experiment: AUC; sedimentation equilibrium of the purified proteins in solution, data fitted to dimer and monomer species; sedimentation velocity showed single species (1.8 and 2.3 S); conditions not shown.
Series [3] addresses NBzdRL, N-terminal domain of BzdR fused to its linker region (Azoarcus sp. CIB). The description is as above.
The target in series [4] is Q1 chimera (NBzdRL fused to E. coli shikimate kinase I) (Azoarcus sp. CIB | E. coli) (UniProt P0A6D7). Briefly: AUC; sedimentation velocity of purified His6-tagged proteins, c(s) distribution; s-value did not change significantly over 1-30 µM protein.
Substrate in series [5]: O=C(O)C1=C[C@@H](O)[C@@H](O)[C@H](O)C1
Briefly: coupled pyruvate kinase/lactate dehydrogenase shikimate kinase assay (Km). The settings on record: Mg2+, ATP. The format is biochemical, Escherichia coli.

Consider `CC(C)(COP(=O)(O)OP(=O)(O)OC[C@H]1O[C@@H](n2cnc3c(N)ncnc32)[C@H](O)[C@@H]1OP(=O)(O)O)[C@@H](O)C(=O)NCCC(=O)NCCSC(=O)c1ccccc1` [benzoyl-CoA], for which, in series [1], the affinity, expressed as Kd, was 203 ± 35 µM.

“NBzdR, N-terminal DNA-binding domain of BzdR (domain or fragment)” gave a stoichiometry N in series [2] of 2.

“NBzdRL, N-terminal domain of BzdR fused to its linker region (domain or fragment)” had a stoichiometry N in series [3] of 2.

For “Q1 chimera (NBzdRL fused to E. coli shikimate kinase I) (from UniProt P0A6D7 1-173)”, the stoichiometry N in series [4] was determined as 2.

B1: shikimate kinase I (SKI) (Escherichia coli K-12) (protein)
chain: AEKRNIFLVGPMGAGKSTIGRQLAQQLNMEFYDSDQEIEKRTGADVGWVFDLEGEEGFRDREEKVINELTEKQGIVLATGGGSVKSRETRNRLSARGVVVYLETTIEKQLARTQRDKKRPLLHVETPPREVLEALANERNPLYEEIADVTIRTDDQSAKVVANQIIHMLESN
notes: His6-SKI
Take B1: the Km in series [5] is on record as 0.4 mM.
